From PMC3506622

Experiments:
[1] = target: bcPadR1, PadR-like transcriptional regulator from Bacillus cereus ATCC 14579 (product of gene locus BC4206) (Bacillus cereus ATCC 14579); assay: SEC; analytical gel filtration, Superdex 200 PC 3.2/30; 20 mM Tris-HCl pH 8.0, 200 mM NaCl, 1 mM EDTA, 1 mM dithiothreitol; apparent molecular weight against five marker proteins
[2] = target: bcPadR2, PadR-like transcriptional regulator from Bacillus cereus ATCC 10987 (product of gene locus BCE3449) (Bacillus cereus ATCC 10987); assay: as above

Row | Substance | stoichiometry N [1] | stoichiometry N [2]
1 | bcPadR1, PadR-like transcriptional regulator from Bacillus cereus ATCC 14579 (product of gene locus BC4206) (natural protein) | 2 | –
2 | bcPadR2, PadR-like transcriptional regulator from Bacillus cereus ATCC 10987 (product of gene locus BCE3449) (natural protein) | – | 2
